# No end group written: not given here.
# B1: Long CIZ1b peptide (b66) (peptide)
# peptide: EIAGQDEDHFITVDAVGCFEGDEEEEEDDEDEEEIEVRSRDISREEWKGSETYSPNTAYGVDFLVP
# notes: also called CIZ1b66
# B2: Short Ciz1 b-variant peptide DEEEIEVRSRDIS (peptide)
# peptide: DEEEIEVRSRDIS
# notes: also called short b-variant peptide; short peptide
# B3: Long Ciz1 b-variant peptide (SEQ ID NO: 12) (peptide)
# peptide: EIAGQDEDHFITVDAVGCFEGDEEEEEDDEDEEEIEVRSRDISREEWKGSETYSPNTAYGVDFLV
# notes: also called synthetic b-variant peptide; B-var peptide
# Columns and labels:
# [1] = target: T1, human fibrinogen alpha chain (carrier protein in human plasma) (human, UniProt P02671-2 20-629); test: peptide incubated with normal human plasma, reducing SDS-PAGE, western blot with 2B and 043
# T1 construct: mature; This is the carrier protein of normal plasma that runs at about 65-70 kDa in reducing SDS-PAGE; also called Uniprot P02671
# T1 sequence (looked up): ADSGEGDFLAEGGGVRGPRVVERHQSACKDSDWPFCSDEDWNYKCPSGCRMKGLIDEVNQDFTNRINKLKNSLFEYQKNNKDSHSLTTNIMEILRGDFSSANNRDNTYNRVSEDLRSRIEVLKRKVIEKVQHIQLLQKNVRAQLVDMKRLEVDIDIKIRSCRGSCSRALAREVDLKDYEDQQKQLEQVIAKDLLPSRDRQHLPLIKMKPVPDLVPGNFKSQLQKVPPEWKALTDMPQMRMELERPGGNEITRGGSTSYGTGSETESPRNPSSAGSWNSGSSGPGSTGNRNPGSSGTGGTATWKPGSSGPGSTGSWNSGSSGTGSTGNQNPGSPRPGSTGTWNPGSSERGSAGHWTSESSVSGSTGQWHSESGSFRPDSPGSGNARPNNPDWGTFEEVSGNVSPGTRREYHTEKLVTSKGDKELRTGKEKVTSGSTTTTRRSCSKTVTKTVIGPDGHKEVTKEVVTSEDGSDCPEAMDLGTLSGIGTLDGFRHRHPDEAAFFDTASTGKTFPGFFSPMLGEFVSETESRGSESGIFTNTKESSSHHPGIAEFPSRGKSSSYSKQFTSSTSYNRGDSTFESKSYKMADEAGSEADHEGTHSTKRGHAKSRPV
# Experimental: (§1) Band identity was verified by ponceau S stain followed by Western blot with anti-CIZ1b antibody 043 of a parallel gel (right). B) Gel slices were soaked in 2% SDS-PAGE loading buffer (with 200 mM βME) and separated through a denaturing gel to recover the 043-reactive species at 70 kDa. Note that sample loaded as a gel slice is slightly retardation compared to markers which are loaded in solution. […] C) Western blot of normal human plasma (non-cancer, N) showing reconstitution of CIZ1b epitope via complex formation between a carrier protein in plasma and synthetic CIZ1b peptides of the indicated lengths, but not equivalent CIZ1a peptide (Table 2). Note that free peptides migrate in reducing SDS-PAGE with a relative mobility 3 times expected (˜21 kDa instead of 7.6 kDa for b66, ˜5 kDa instead of 1.6 for b13). None are recognized by CIZ1b antibodies in western blot unless complexed with carrier protein. For CIZ1b66 peptide a new reactive species is created at ˜80 kDa, while CIZ1b13 peptide increases antigenicity at the same mobility as the endogenous epitope in lung cancer plasmas (C, lane 1). D) Western blot of non-reducing SDS-PAGE gel showing purified fibrinogen (6 nmols) in all lanes (upper), with and without prior incubation with 100 pmols of the indicated peptides (Table 2), probed with CIZ1b antibodies as indicated. […]
# [2] = target: T1, human fibrinogen alpha chain (carrier …); test: peptide incubated with normal human plasma, western blot (FIG. 10C)
# Experimental: as §1
# [3] = target: T1, human fibrinogen alpha chain (carrier …); test: peptide combined with plasma, western blot
# [4] = target: T1, human fibrinogen alpha chain (carrier …); test: 50 nmols peptide mixed with 0.5 ul non-cancer plasma, western blot
# Experimental: FIG. 3—Ciz1 b-variant ˜65-70 kDa species is a Ciz1 b-variant peptide stably bound to a carrier protein, which may augment antigenicity of Ciz1 b-variant peptide. a) Western blot illustrating cancer-selective epitope recognised by anti-Ciz1 b-variant antibody 2B, as described previously (Higgins et al; as above). b) Reconstitution of a Ciz1 b-variant epitope from synthetic b-variant peptide (50 nmols of […] DFLV—SEQ ID NO: 12) mixed with 0.5 ul of non-cancer plasma. Free peptide migrates with mobility indicative of a MW 3-4× greater than predicted (˜30 kDa instead of 7.6 kDa), indicated by blue arrow. When incubated in plasma mobility decreases, antigenicity increases, and a new species is created at ˜80 kDa, indicated by red arrow. c) Similar results were generated with a separate anti-Ciz1 b-variant monoclonal antibody. d) For reference, a duplicate blot is probed with a monoclonal antibody that is selective for the exon 14a version of the peptide ([…]—SEQ ID NO: 13), showing detection of the peptide in lanes 1 and 3. Key: Lane 1, WT peptide only. Lane 2, B-var peptide only. Lane 3, WT peptide+normal plasma. Lane 4, B-var peptide+normal plasma. Lane 5, normal plasma only. […] F) Western blot showing titration of short peptide ([…]—SEQ ID NO: 2) into cancer patient plasma, detected with anti-Ciz1 b-variant monoclonal antibody (upper) or anti-Ciz1 b-variant polyclonal antibody 043 (lower).
binder,measurement,setting,value
CDEEEIEVRSRDIS-NH2 (also called CIZ1b13) [Short CIZ1b peptide (b13)],binding result,[1],binds
B1,binding result,[2],binds
B2,binding result,[3],binds
B3,binding result,[4],binds

# From US20180306795A1 (CIZZLE BIOTECHNOLOGY, published 2018)
